Data reported in the domain aggregation screens of Martell et al. (2025).

Assay: soluble fraction after stress (log2 fold change); higher = more stays soluble; pooled small domains, quantitative proteomics
Details: stress: 50 degC
Method in brief: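 Each library was heated to 50°C as a stress step. The libraries, made up of small protein domains, were pooled and analysed at high throughput by quantitative proteomics. The reported value is the base-two logarithm of the fold change in each protein's soluble amount after stress, taken as a measure of aggregation propensity. The higher the value, the more protein stays in solution.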

Row | Sequence | soluble fraction (log2)
1 | HMKFPPELVEFIEGLSLLKPPLNYATVHRRAEKLAIKKGWASPSYSTVRNIIRKLSPALTTLAHEG | -2.15
2 | HMAPELRSDAQMRRLWALAKENGLDEVGFRAFISDATGREVESTKSLTATEAHRLIEELEAP | -0.388
3 | HMPGTAAQARQLKAWLKENGEKPGAALPALQKAQEIYGYVPREVQQLIADALHKPLTEIYGVSTFYSQFNL | -0.573
4 | HMEKIDEDIMDVLKKKAEVSGISLGVLKSIYEKAVKQYKLGHEIGQVKEQYAMQKVNTHLLENK | 0.194
5 | HMDVPVEVFMERIVTALREGRKTTFSELMEGKPERGKVIGTFLALLQLSKGQQIQIHQEQRTGEISIEGGA | -0.315
6 | HMADNKDMQAAFMEALNGLKEYAKVNGNIVTKEDVNSYFKDMHLDDNKYSMITGYLMANGITIKG | 0.23
7 | HMFDEVKDAARRLAALLDQAGGTLTLNDKSAPEEVAALTGMSKKVFKRALGHLMSRSEVVVADGRITKKD | -0.289
8 | HMLLELINLQVKILENEELKIIGKVIDLENEKNNLLVIELLKDQKKVLVPFVKEIVPLIDIKNNFIMINPP | -0.897
9 | HMTNEAFITPSVLEWAIKRAGVSAESIHKKAEQWVSGKARPTFKQAVDIAKTLQIPFGYLWLKEPPKEQ | -0.551
10 | HMNIIATHTVPAIEQKIRLQEYAISIFPQINSRSALKKAIAKKLVLLDGERASTADWIQPGQKIELLEDK | -0.337
11 | HMAPEEIPLDRVVRLVEQGRVESIVVTGERLEVTLQNGTVYGSTKENGVGFMETLDRYQVPLEQRDFSYEV | -0.0708
12 | HMRRKDIEFTNTMLEELYRHNSKWYDAVVRAYALEIPQKQIAEEMGIRLEAFQSMLFRAKKWIKTKYEADY | -2.51
13 | HMPYEHQRAVGALIRRLREQQGWSQRALADWVHMDQSAVSRVETGQRSVTAEELGRFADALHVSTDALVR | -0.291
14 | HMNTQGWEIFEGRITTADTDLNPSGWIRIDGQRIFVISDAGFIDKGKEVSILSVDGNRVLVRK | -0.641
15 | HMDIEELLSRSTDRLSRQTEIRRLLADAQGRPNISSLARRFKVARRTVIRDLQELIRRGEVPPEIYPK | -0.744
16 | HMNVWESVDLRQEQHEAKRRLILKQAALLFADRGFHETTIDQIAEALNVTKPTIYYYIESKEDLLYQVA | -0.0821
17 | HMYQPLRDVIFETLRKAIVSGDIKPGERLMEVSLANQMGVSRTPVREAIRRLEAEGLVTMTPRKGTHVAE | -0.399
18 | HMFMLQAKRVPVSELENFKGIVAEDVVSQSRALILPRGSNLSWLSSSAMQNLSTRLALEGVESISIYL | -1.43
19 | HMRILGIDPGSVVTGYGVIDKSGNYLRHVLHGEIKPHKGYLLSEVLMDIFSKLSAVIVETNPQSV | -0.0179
20 | HMSDTMTVTNVKYAIYLRSTPSEASDANIIMEIPVGSKVTYLDTPNNTFYKISYGGTVGYSKQIYLTF | -0.836
21 | HMTIAEGLIFRFTEPFKPIDQYTYYIMGDNKVEQIPNFKTLEVMLAQRNQNYLSVRVIEKSQLDDILKEF | -4.04
22 | HMSQVLVRINQDLNIRSGPGAQYDIIAVYRSGAIASVIGTYNNWYKVNFELDSKSYTGWINGTFTSR | -1.93
23 | HMGDLAAAGNHTLEVMGFPQHPDESYRHFVGNGIPKLIERMLPAGHDKETEQKAYDIFMEYYSAHK | 0.227
24 | HMDTRKEREIALYEAALRLIASGVNPAAMKVQQIADEAGIGKGTVYEYFASKEEILHGMALH | -0.241
25 | HMSRAAQRLFMSQPPLSRHIRQLEDRLGVTLFVRHTRGLTLTEDGQRVLEMVRPLLDLQDKTYAALSQLT | 0.382

Row | Sequence | soluble fraction (log2)
26 | HMKLSNELLNAIMLIKKGIRNPTSLAQRLNTDTQYAKNLLEHLKMTGLINEHSRLTSRGLDIFHQK | 0.163
27 | HMRTRSDVKRAAIIQAAKDAFQEYGVNATSMDKLAEMASVSKRTVYNHFSAKEELVMHIVKE | 0.166
28 | HMEDEFNQIASQKNVPSFLGKGKKEVINIAKKNKIKINLSGNGYVKRQIPAPGEVISHLDEVTIFLEPG | 0.396
29 | HMAVKPIDRLRSLMAESNVTDAELQKVVADKGHYAADAPIDSYSEKFISGWLIKYWSQILNLINADRTVL | -0.0363
30 | HMNLGDSLFHARRKQGLSQEAVAEQLGVSRQTVSKWEANETLPDIRQSKLMAKLYHTSLDELI | 0.00427
31 | HMVDWTFPVLVKDVVMMGRYGHMGFLRIPGKKDFESVDNALAKVGMVEYAKQQIGELSGGQR | -0.0772
32 | HMEKNKERIAFLKKRLEMYYEAEEKILQGQSYTIGSRTLTRTSLANVQSKIKELESEISALETRGN | -0.57
33 | HMVSLNKTEFIAVKKASASELRDKINSLGLDVLKDATISADARTNQIIATGPKYALEQIKMLVVGLDVSS | 0.0771
34 | HMASEKSEQLYQQMKLDIAGMPPDTRLPSIRALMRSYSVSQLLIDRTLGRLREEGALRKRFDGLYTYL | -2.06
35 | HMDIYKKFIIPATYFGSRLDHVLSELLPELSRSKIQNMIKQNLVMINGNHAAQKQKVVGDEEIIIKDI | -0.0556
36 | HMAEDDAVQKAVREAVAESADAVADYKAGSERALNFIVGVVMKKTRGKASPGEVHRLVKAEVEK | 0.4
37 | HMQKLNIEEQIVYDIIFKNKELSANEIQIKSGIKTSILNALLINLEIKQYIKLKFGNFYEIK | 0.209
38 | HMSHGYVELKAENNDALISALENHTWFENIKLDPETNLVKAILTKPIEAENLNKMLFEKGIILSHLVKRK | -0.0853
39 | HMLEDDTVNTAEGIKIGDSFAAVTKAYGTDYVAAGNTYAYSKDKMTLTFVMNNDKVSTISYSLLTS | -0.129
40 | HMSGAWEVGLLRQFTDWMGTQYNAYAGRNFDAITVAQVAEKNPELLTPFVESFFKERVEPALAAG | -0.849
41 | HMRVVPEILERAVAVFEALGVDRLPSSTLADRLGYDSPEALADVLRPLGVRPKKYRDGKSTARGYLAADLG | -0.473
42 | HMPQETPIPKSEIQSYDEIWLEPISTDNILRNELRGWYHVKDRWVENEFGNRFYLDTYASKWLAFPS | -0.0557
43 | HMNRPYETLFTGLTTDEASAIVGKLEEYGAADYKIEGDTIKVPAAQEPDLKAKLLLDGYPKS | 0.105
44 | HMTVSIDSLFDKFEDLQEQGLGDKTEEGQELRGLIRAFIEQEHLSVRITRSTSNQELLDMIEEAMQ | -1.45
45 | HMEDDPIYEQVMIFLLDKQITSAPELERRFKITHQRAIELLAQMEKTGIVSTMGHAGKRDVLT | -0.827
46 | HMSGENAVLTEGTMVTVRRGGETITATARKETVKQFLSRMDIIPGSREMVGIELMENSVMLTISD | -0.227
47 | HMIPRNLEDLVRENQIGLVILKIVEIIGEDNIRDLDPETIYFINRILNELNLKKIRNNILSEALPPR | -1.31
48 | HMDRRIDIANAVKTALGSLPERQKTAIVLVHYEGFSGAETAKLLGISVEAVESLLARARRNLRQTLGP | -0.455
49 | HMGPDGLFAKFREPETGKDLLITQNVFVEQVLIKGVLTRTLTDAEANTYRAPFVNPEKRFPIYVWPNELP | 0.142
50 | HMQAALEVQASAGVLAPVPPDQRQALLDTLAQDPRPGYQHEAGRVYGFPFGGFEVRFTVSDGLLTVLSAYK | -1.7

Row | Sequence | soluble fraction (log2)
51 | HMATYDIDALKVDLPSAKELAQFVYDKTDGLVSLDLIGKPKEEQYIVAKNALEGKKVPAEYLTGFNPY | 0.202
52 | HMMTDEEFLRIAGYMKQRYGIDLGQKKVIMNGRLENHIKSGGWSSFHAFMNDLEKDSSGKLEKELVNLLTT | 0.0314
53 | HMNPDMIAGVLKVPAAAGRLRSALFELGVVDDESYDDDGASRLTVTASQSDLERIVAQAGLVFEDVLVERR | -0.0627
54 | HMDLEGLSNKELVTLRGQIQDDLNKWATEVGIIDPKNRPDDYNRALQSLEDAKRQRSAIDAKL | 0.0869
55 | HMLDDESLHFFYKKDGWEYWMKTTTENNYPIQLRKKIGDEKVQEYWNGDKEKKKIGASYFGV | -0.391
56 | HMAEVAFEEQNIEQISNLLLRIQAIFAELMTALDKEKGGEIADNLERLYVFFLEKLGDANVRKDPAP | 0.00759
57 | HMQFLGKVTVTHARQANLRAQPSMDAAIVGKVNPGEVYNVVSIPKTSWYEIQLQNGKTVFIAAGMVSFRM | -0.557
58 | HMVINKRELNVLSIYSRGSEKRAIILFPTGQTKLVKVGDTLNGGRVAAIGTTEIRYIKGGNNLVLKIPQ | -2.41
59 | HMKSKHENLIDGLLKMISSMKPHDRLTPERQLAEEWAVSRMTLRRALEVLQFQGKIYTVPSSGLFVAEPK | -2.29
60 | HMRQQAFWALVPEERDVLDETGAPLFRIGPTAWALVIEDRGEVFVVRDEDGRVGYLHEVDGVTR | -1.52
61 | HMAATHYEGIKQDGETDDAVIERVLTGLSVTANKDDIFIVKTLIAGTKYSYTAYVYNGNAWAAM | 0.0325
62 | HMIQIGEQIRYYRTKIGISQEALALMADINPAYIGQIERGIKSPTVNTIKKIANAMGINLHTLFT | -2.91
63 | HMSEATTVNYKYAVTISDLRIRKGPGTNYGSVGYTGKGVFTIVAEKGGWGKLKSGAGWISLNSKYGHKVS | -1.45
64 | HMSIVVPDLRGKTLEEARAILKEADLDFEINDSTFSKTARPGTIRDVVPSPGSRVKAGRILFISINGF | -0.519
65 | HMGSFISADEALAKALSHAGLDQSAIRELEMDSELDDDVPHYSIDFKSGNLEYEYEISATDGSVLKFEQD | 0.105
66 | HMSSLREQVADALRAHLVSGRMRPGVLYSAPKLAAEFGVSATPVREAMLDLVSEGLVDVVRNKGFRVT | -0.344
67 | HMTIGPALAIGGNKVEMTQQGKIQVTNPQGKIKTLSQDEFKKQLVKNADKIEAGQDFEFKKD | 0.263
68 | HMDEKPPHEALSNREFQVLQLLAQGRSVGQIAQQLTLSANTISTYRARIFDKLGLHNPADLFSYAARHRLT | -0.273
69 | HMDIVGAINKIESMKQDRYLAMHPYSITHSADGYYRTYLPADDGKRKQIKKKSKSDLEKVVIDYWTKRS | 0.0365
70 | HMKANIGDQVFTQLKDQIINGEWRPGDRIPSEAQLIQLFGVSRGTVRQAVQKLAGEGLIVTRHGEGSFVQG | 0.096
71 | HMTFTQFAESHGVIIKSLKASDKIQRGPTVAHPKSDNGAWLWDGNRGGVMAWDGDGQWYWFK | -1.95
72 | HMPSPEVELLEDLLSKTDEAEVEAAFHENQALVNDEFKAMLGSLIQELSKTQEADPEIIARIRFIQKLT | 0.16
73 | HMGNRQEQVRIIRDLWRQLADAGQPVPAKHLTLDLDALDATQLTKLEDQAHGWLAKLSAQADLADAA | -0.0488
74 | HMTIKTAFPAEDLAKPDNFKSLLYYFGLLTIRGTKWGSTLLAIPNLTVREQLYSYLVEAYRSADL | 0.291
75 | HMTSSQRDSILEFLKTRKDHPTADVVYMNVRKSFPNISLGTVYRNLTLLSDIGQIAKIRVGDGVDHFDADT | -0.526
